Experimental data reported in patent publication US20040228849A1 (University of California, published 2004).

Tests used:
Flag-IKKβ [1] = biological target: T1, Flag-IKKβ
T1 chain: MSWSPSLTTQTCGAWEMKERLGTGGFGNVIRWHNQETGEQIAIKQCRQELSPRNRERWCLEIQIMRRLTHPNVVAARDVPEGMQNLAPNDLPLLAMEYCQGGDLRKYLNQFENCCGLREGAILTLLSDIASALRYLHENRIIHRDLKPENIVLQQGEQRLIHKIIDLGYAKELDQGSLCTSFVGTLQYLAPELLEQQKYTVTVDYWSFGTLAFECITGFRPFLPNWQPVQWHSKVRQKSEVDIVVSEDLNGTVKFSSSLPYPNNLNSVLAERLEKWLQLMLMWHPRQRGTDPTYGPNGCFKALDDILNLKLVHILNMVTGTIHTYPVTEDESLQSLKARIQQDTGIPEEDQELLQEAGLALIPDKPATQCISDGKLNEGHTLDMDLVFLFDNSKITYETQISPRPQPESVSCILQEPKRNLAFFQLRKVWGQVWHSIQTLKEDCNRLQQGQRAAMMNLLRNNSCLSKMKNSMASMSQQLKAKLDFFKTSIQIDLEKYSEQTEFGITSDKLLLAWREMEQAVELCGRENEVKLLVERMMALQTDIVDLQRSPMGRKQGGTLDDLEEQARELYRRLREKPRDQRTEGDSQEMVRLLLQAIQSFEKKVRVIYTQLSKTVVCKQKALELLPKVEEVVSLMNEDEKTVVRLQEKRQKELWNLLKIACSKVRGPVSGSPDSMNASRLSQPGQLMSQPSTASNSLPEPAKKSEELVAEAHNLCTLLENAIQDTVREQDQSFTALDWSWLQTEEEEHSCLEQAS

Flag-IKKβ [2] = biological target: T2, Flag-IKKβ (human, UniProt O14920 1-756); assay: coimmunoprecipitation from transfected 293 cells: anti-HA immune complexes probed with anti-Flag(M2)
T2 construct: Transiently coexpressed in 293 cells
T2 sequence: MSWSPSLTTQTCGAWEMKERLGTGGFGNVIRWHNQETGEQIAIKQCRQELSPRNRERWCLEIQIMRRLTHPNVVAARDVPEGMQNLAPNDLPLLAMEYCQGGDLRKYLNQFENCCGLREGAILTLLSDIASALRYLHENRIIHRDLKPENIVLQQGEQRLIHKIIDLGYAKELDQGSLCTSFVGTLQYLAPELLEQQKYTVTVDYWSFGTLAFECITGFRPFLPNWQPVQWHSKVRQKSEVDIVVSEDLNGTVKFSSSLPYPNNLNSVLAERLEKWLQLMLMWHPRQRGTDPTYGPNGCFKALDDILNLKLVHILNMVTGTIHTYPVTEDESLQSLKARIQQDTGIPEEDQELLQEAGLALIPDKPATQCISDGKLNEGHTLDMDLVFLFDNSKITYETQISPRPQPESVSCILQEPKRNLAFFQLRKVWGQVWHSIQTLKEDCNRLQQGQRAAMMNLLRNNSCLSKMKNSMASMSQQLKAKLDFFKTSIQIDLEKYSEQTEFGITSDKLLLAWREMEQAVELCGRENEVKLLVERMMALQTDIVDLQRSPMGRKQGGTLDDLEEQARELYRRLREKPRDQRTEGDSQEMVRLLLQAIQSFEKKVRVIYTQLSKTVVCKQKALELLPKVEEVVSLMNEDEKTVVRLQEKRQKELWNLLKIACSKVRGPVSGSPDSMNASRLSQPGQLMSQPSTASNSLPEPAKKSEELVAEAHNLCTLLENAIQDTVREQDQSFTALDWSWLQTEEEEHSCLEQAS

[3] = biological target: the molecule itself; assay: immunoprecipitation experiments, transfected mammalian cells
[4] = biological target: T3, IKKβ (full length human IKKβ subunit) (human, UniProt O14920 1-756); assay: as above
T3 construct: Endogenous protein of HeLa cells; also called endogenous IKKβ; 87 kDa protein
T3 sequence: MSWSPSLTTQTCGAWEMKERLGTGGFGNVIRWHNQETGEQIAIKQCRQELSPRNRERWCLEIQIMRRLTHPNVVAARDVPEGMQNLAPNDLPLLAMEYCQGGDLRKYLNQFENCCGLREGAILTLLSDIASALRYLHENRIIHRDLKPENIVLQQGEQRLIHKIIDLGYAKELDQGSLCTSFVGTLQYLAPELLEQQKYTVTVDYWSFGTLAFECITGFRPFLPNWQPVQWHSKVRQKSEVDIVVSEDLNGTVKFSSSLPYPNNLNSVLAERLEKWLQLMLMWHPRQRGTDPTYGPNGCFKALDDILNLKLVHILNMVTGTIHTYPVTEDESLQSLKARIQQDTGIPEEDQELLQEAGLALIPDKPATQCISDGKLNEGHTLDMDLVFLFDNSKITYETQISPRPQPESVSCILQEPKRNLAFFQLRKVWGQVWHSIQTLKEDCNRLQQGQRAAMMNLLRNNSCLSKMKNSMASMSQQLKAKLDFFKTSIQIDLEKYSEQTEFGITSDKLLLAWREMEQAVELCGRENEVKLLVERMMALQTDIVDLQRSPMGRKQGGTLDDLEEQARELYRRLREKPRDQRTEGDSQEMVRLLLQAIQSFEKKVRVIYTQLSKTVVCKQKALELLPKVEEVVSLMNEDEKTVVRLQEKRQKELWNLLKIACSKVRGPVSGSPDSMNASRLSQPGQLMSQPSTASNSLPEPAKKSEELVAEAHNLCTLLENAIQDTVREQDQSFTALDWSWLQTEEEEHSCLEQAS

Binder | IKK activity isolated by immunoprecipitation with anti-HA (IκB kinase activity) (Flag-IKKβ [1]) | binding result (Flag-IKKβ [2]) | binding result [3] | binding result [4]
HA-IKKα(LZ)^- (enzyme, not shown: small tags and cut ends, Leucine zipper mutant of IKKα; also called IKKα(LZ)^- mutant; IKKα LZ^- mutant) MERPPGLRPGAGGPWEMRERLGTGGFGNVCLYQHRELDLKIAIKSCRLELSTKNRERWCHEIQIMKKLNHANVVKACDVPEELNILIHDVPLLAMEYCSGGDLRKLLNKPENCCGLKESQILSLLSDIGSGIRYLHENKIIHRDLKPENIVLQDVGGKIIHKIIDLGYAKDVDQGSLCTSFVGTLQYLAPELFENKPYTATVDYWSFGTMVFECIAGYRPFLHHLQPFTWHEKIKKKDPKCIFACEEMSGEVRFSSHLPQPNSLCSLIVEPMENWLQLMLNWDPQQRGGPVDLTLKQPRCFVLMDHILNLKIVHILNMTSAKIISFLLPPDESLHSLQSRIERETGINTGSQELLSETGISLDPRKPASQCVLDGVRGCDSYMVYLFDKSKTVYEGPFASRSLSDCVNYIVQDSKIQLPIIQLRKVWAEAVHYVSGLKEDYSRLFQGQRAAMLSLLRYNANSTKMKNTSISASQQLKAKLEFFHKSIQLDLERYSEQMTYGISSEKMLKAWKEMEEKAIHYAEVGVIGYLEDQIMSLHAEIMELQKSPYGRRQGDLMESLEQRAIDLYKQLKHRPSDHSYSDSTEMVKIIVHTVQSQDRVLKERFGHLSKLLGCKQKIIDLLPKVEVALSNIKEADNTVMFMQGKRQKEIWHLLKIACTQSSARSLVGSSLEGAVTPQAYAWLAPDLAEHDHSLSCVVTPQDGETSAQMIEENLNCLGHLSTIIHEANEEQGNSMMNLDWSWLTE | had no effect on the very low activity that coprecipitated with HA-IKKα(LZ)^- | no binding | – | –
IKKα (full length human IKKα subunit) (enzyme, Endogenous protein of HeLa or 293 cells; also called endogenous IKKα; 85 kDa protein) MERPPGLRPGAGGPWEMRERLGTGGFGNVCLYQHRELDLKIAIKSCRLELSTKNRERWCHEIQIMKKLNHANVVKACDVPEELNILIHDVPLLAMEYCSGGDLRKLLNKPENCCGLKESQILSLLSDIGSGIRYLHENKIIHRDLKPENIVLQDVGGKIIHKIIDLGYAKDVDQGSLCTSFVGTLQYLAPELFENKPYTATVDYWSFGTMVFECIAGYRPFLHHLQPFTWHEKIKKKDPKCIFACEEMSGEVRFSSHLPQPNSLCSLIVEPMENWLQLMLNWDPQQRGGPVDLTLKQPRCFVLMDHILNLKIVHILNMTSAKIISFLLPPDESLHSLQSRIERETGINTGSQELLSETGISLDPRKPASQCVLDGVRGCDSYMVYLFDKSKTVYEGPFASRSLSDCVNYIVQDSKIQLPIIQLRKVWAEAVHYVSGLKEDYSRLFQGQRAAMLSLLRYNANLTKMKNTLISASQQLKAKLEFFHKSIQLDLERYSEQMTYGISSEKMLKAWKEMEEKAIHYAEVGVIGYLEDQIMSLHAEIMELQKSPYGRRQGDLMESLEQRAIDLYKQLKHRPSDHSYSDSTEMVKIIVHTVQSQDRVLKERFGHLSKLLGCKQKIIDLLPKVEVALSNIKEADNTVMFMQGKRQKEIWHLLKIACTQSSARSLVGSSLEGAVTPQAYAWLAPDLAEHDHSLSCVVTPQDGETSAQMIEENLNCLGHLSTIIHEANEEQGNSMMNLDWSWLTE | – | – | binds | binds
